Reference: article PMC8805157 (2021)

B1: GFP-Atg11 (wild type) [S. cerevisiae] / Atg1-PA [S. cerevisiae] (parent complex)
chain 1: MADADEYSTAPTQQEITPLQTTATIINAISGECITTNVDFFVSLDKFKQFIARKWKIPPDQLLILLPYGNKLKPSMFKELLINRSFTLNDFYVYDRRLFSLVSKPTPTNLLTSKDSNPMNSPNSNDLTETLEYLIKNSHISQYQGSDTIMIKPMPSPLEDADVDLSRLNYHSVTSLLTTNLGWLSALEIDVHYFKSLIPDIIAHIKRIFDGLTVCSQYLKLYCFDVESLYNSNVQFLNQLVDNGMTSKWEKCFNDTLSKLTALEGDSLQKFINIESLLENEKSVKILNHSINGKLNKIKREIDENASFRDIITVNIDRLRQMFTPNESKFELEDQMAESFEVLVSEMRTRSRNVLDKEEEEFNSQEFLKSMNVMLEKDKKESVKTLFTISQALYSQIGELIDLKKSLQKHAVAILGNIAFTQMEILGIKRLLLNECNKDLELYKKYEVEFAQVEDLPLIYGLYLIEKYRRLSWFQQILSFISNFNQDLELFKQNELRTRNKWVKNFGSIATVFCEDLLSSSDFKRLNEYHSHTSPPNEDEEDENENSIANYRQDLVKVSQAIDNYMTQIKETDVSEPIIDLLSKTLFETKRFHIIYSNFKNNNNNSSNGNSISPEGSIALKSDDVVKGYKTRIKKLESLLHEFQYSDIGHWPQGVLNTHLKPFRGSATSINKKKFLGASVLLEPANISEVNIDSVSQANNHQIQELESNVDDLLHQLQLLKEENNRKSMQISEMGKKISDLEVEKTAYRETLTNLNQELARLTNEEQSHRTEIFTLNASFKKQLNDIISQDNEKIEKLTGDYDDVSKSRERLQMDLDESNKKHEQEVNLLKADIERLGKQIVTSEKSYAETNSSSMEKGEKFETIPLAEDPGRENQISAYTQTLQDRIFDIISTNIFILENIGLLLTFDNNNNIQIRRVKGLKKGTAQSNILDESTQMLDAHDNSLIKSPVFQKLKDEYELIKSVANGSEKDTQQSIFLGNITQLYDNKLYEVAVIRRFKDIETLAKKLTKENKIKRTLLERFQREKVTLRNFQIGDLALFLPTRENVNSVGSMSSSTSSLSSSFSSVDLSTPPPLDAMSIQSSPSVIHSNVINQASISGRDKNKLMRPWAAFTAFEESTRYFLKDEKGLTKGKEWFVGRIVTLEHFVADSPSNNPFRLPKGSVWFQVTAVVVSYQGV
chain 2: MGDIKNKDHTTSVNHNLMASAGNYTAEKEIGKGSFATVYRGHLTSDKSQHVAIKEVSRAKLKNKKLLENLEIEIAILKKIKHPHIVGLIDCERTSTDFYLIMEYCALGDLTFLLKRRKELMENHPLLRTVFEKYPPPSENHNGLHRAFVLSYLQQLASALKFLRSKNLVHRDIKPQNLLLSTPLIGYHDSKSFHELGFVGIYNLPILKIADFGFARFLPNTSLAETLCGSPLYMAPEILNYQKYNAKADLWSVGTVVFEMCCGTPPFRASNHLELFKKIKRANDVITFPSYCNIEPELKELICSLLTFDPAQRIGFEEFFANKVVNEDLSSYELEDDLPELESKSKGIVESNMFVSEYLSKQPKSPNSNLAGHQSMADNPAELSDALKNSNILTAPAVKTDHTQAVDKKASNNKYHNSLVSDRSFEREYVVVEKKSVEVNSLADEVAQAGFNPNPIKHPTSTQNQNVLLNEQFSPNNQQYFQNQGENPRLLRATSSSSGGSDGSRRPSLVDRRLSISSLNPSNALSRALGIASTRLFGGANQQQQQQQITSSPPYSQTLLNSQLFHELTENIILRIDHLQHPETLKLDNTNIVSILESLAAKAFVVYSYAEVKFSQIVPLSTTLKGMANFENRRSMDSNAIAEEQDSDDAEEEDETLKKYKEDCLSTKTFGKGRTLSATSQLSATFNKLPRSEMILLCNEAIVLYMKALSILSKSMQVTSNWWYESQEKSCSLRVNVLVQWLREKFNECLEKADFLRLKINDLRFKHASEVAENQTLEEKGSSEEPVYLEKLLYDRALEISKMAAHMELKGENLYNCELAYATSLWMLETSLDDDDFTNAYGDYPFKTNIHLKSNDVEDKEKYHSVLDENDRIIIRKYIDSIANRLKILRQKMNHQN
B2: GFP-Atg11 (wild type) [S. cerevisiae] / Atg9-PA [S. cerevisiae] (parent complex)
chain 1: B1 chain 1
chain 2: MERDEYQLPNSHGKNTFLSRIFGLQSDEVNPSLNSQEMSNFPLPDIERGSSLLHSTNDSREDVDENDLRVPESDQGTSTEEEDEVDEEQVQAYAPQISDGLDGDHQLNSVTSKENVLETEKSNLERLVEGSTDDSVPKVGQLSSEEEEDNEFINNDGFDDDTPLFQKSKIHEFSSKKSNTIEDGKRPLFFRHILQNNRPQRDTQKLFTSSNAIHHDKDKSANNGPRNINGNQKHGTKYFGSATQPRFTGSPLNNTNRFTKLFPLRKPNLLSNISVLNNTPEDRINTLSVKERALWKWANVENLDIFLQDVYNYYLGNGFYCIILEKILNICTLLFVVFVSTYMGHCVDYSKLPTSHRVSDIIIDKCYSNSITGFTKFFLWMFYFFVILKIVQLYFDVQKLSELQNFYKYLLNISDDELQTLPWQNVIQQLMYLKDQNAMTANVVEVKAKNRIDAHDVANRIMRRENYLIALYNSDILNLSLPIPLFRTNVLTKTLEWNINLCVMGFVFNESGFIKQSILKPSQREFTREELQKRFMLAGFLNIILAPFLVTYFVLLYFFRYFNEYKTSPGSIGARQYTPIAEWKFREYNELYHIFKKRISLSTTLANKYVDQFPKEKTNLFLKFVSFICGSFVAILAFLTVFDPENFLNFEITSDRSVIFYITILGAIWSVSRNTITQEYHVFDPEETLKELYEYTHYLPKEWEGRYHKEEIKLEFCKLYNLRIVILLRELTSLMITPFVLWFSLPSSAGRIVDFFRENSEYVDGLGYVCKYAMFNMKNIDGEDTHSMDEDSLTKKIAVNGSHTLNSKRRSKFTAEDHSDKDLANNKMLQSYVYFMDDYSNSENLTGKYQLPAKKGYPNNEGDSFLNNKYSWRKQFQPGQKPELFRIGKHALGPGHNISPAIYSTRNPGKNWDNNNNGDDIKNGTNNATAKNDDNNGNNDHEYVLTESFLDSGAFPNHDVIDHNKMLNSNYNGNGILNKGGVLGLVKEYYKKSDVGR
B3: GFP-Atg11 (wild type) [S. cerevisiae] / PA-Atg19 [S. cerevisiae] (parent complex)
chain 1: B1 chain 1
chain 2: MNNSKTNQQMNTSMGYPLTVYDECNKFQLIVPTLDANIMLWCIGQLSLLNDSNGCKHLFWQPNDKSNVRILLNNYDYGHLFKYLQCQRKCSVYIGEGTLKKYNLTISTSFDNFLDLTPSEEKESLCREDAHEDPVSPKAGSEEEISPNSTSNVVVSRECLDNFMKQLLKLEESLNKLELEQKVTNKEPNHRISGTIDIPEDRSELVNFFTELKTVKQLEDVFQRYHDYERLSQECDSKTEIASDHSKKETKIEVEPPNERSLQITMNQRDNSLYFQLFNNTNSVLAGNCKLKFTDAGDKPTTQIIDMGPHEIGIKEYKEYRYFPYALDLEAGSTIEIENQYGEVIFLGKYGSSPMINLRPPSRLSAESLQASQEPFYSFQIDTLPELDDSSIISTSISLSYDGDDNEKALTWEEL

Variants of: B1
Experiment: CoIP (quantified western blot); endogenously driven Atg1-PA; overexpressed GFP-Atg11; four independent replicates; read off a plot

| Variant | ratio to parent |
| --- | --- |
| chain 1 Y565E | ~0.13 |

Variants of: B2
Experiment: CoIP (quantified western blot); proteins overexpressed with a CUP1 promoter in an atg11∆ strain; ≥ 3 independent replicates; read off a plot

| Variant | ratio to parent |
| --- | --- |
| chain 1 Y565E | ~-0.05 |

Variants of: B3
Experiment: CoIP (quantified western blot); proteins overexpressed with a CUP1 promoter in an atg11∆ strain; five independent replicates; read off a plot

| Variant | ratio to parent |
| --- | --- |
| chain 1 Y565E | ~0.88 |
